# Reference: PMC7979852, “Alpha-1 antitrypsin inhibits TMPRSS2 protease activity and SARS-CoV-2 infection” (Nature Communications, 2021)
# Target: T1, α1-antitrypsin (human, UniProt P01009 25-418)
# T1 construct: alpha-1-antitrypsin (SERPINA1), human, plasma-derived, 52 kDa; The activity assays used Prolastin; also called α1AT; alpha-1 antitrypsin; source: bought: Merck (A9024) or GRIFOLS (Prolastin), purified from human plasma
# Assay: SPR; TMPRSS2 amine-coupled (NHS/EDC) on an MUA-functionalised gold chip, Reichert SR7000; α1AT flowed at 0-20 µM in 10 mM HEPES, 150 mM NaCl, 0.05 % Tween-20, pH 7.5, 10 µl/min; equilibrium analysis
# Details: both partners purified
# T1 sequence (P01009 25-418): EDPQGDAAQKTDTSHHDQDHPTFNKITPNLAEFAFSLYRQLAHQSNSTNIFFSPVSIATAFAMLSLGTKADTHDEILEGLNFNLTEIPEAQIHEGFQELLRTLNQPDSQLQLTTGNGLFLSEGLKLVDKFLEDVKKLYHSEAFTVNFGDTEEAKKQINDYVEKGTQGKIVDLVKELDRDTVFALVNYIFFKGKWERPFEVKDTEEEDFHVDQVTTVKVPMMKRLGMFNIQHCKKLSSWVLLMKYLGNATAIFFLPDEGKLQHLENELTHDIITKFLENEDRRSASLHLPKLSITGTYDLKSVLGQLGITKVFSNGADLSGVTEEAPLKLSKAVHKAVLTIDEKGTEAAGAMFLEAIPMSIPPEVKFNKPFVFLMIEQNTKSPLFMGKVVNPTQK
binder,measurement,value
"recombinant TMPRSS2 (enzyme, TMPRSS2, human, recombinant protein from Creative BioMart; No catalogue number or construct limits are printed; The cell-associated activity assay used TMPRSS2 expressed from Addgene 53887 in HEK293T cells; also called recombinant human TMPRSS2; transmembrane serine protease 2; source: bought: Creative BioMart) not shown",Kd,941 ± 297 nM
